What is called Kd is the equilibrium constant for the complex coming apart. The low end stands for tighter binding, the high end for weaker binding.

The record followed here is PMC12284271, “Coupling chromosome organization to genome segregation in Archaea”.

Data set [1] deals with T1, SegB (SegBSs) (Saccharolobus (Sulfolobus) solfataricus P2), ORF:2e81311c.
T1 sequence: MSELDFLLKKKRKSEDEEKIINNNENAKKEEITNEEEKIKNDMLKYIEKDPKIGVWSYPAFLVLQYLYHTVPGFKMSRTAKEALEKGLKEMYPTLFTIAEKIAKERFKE
As to the kind of experiment: DNase I footprinting. The settings on record: EMSA and footprint: 10 mM Tris-HCl pH 7.5, 50 mM KCl, 1 mM DTT, 5 mM MgCl2, 2.5% glycerol, 0.05% NP-40, 1 ug poly(dI-dC), 37 C, 20 min, DNA 1-5 nM. (In general: A gel shift assay detects complexes by their altered migration in electrophoresis.)

Data set [2] has the same test system. Description: EMSA. The settings on record: EMSA and footprint: 10 mM Tris-HCl pH 7.5, 50 mM KCl, 1 mM DTT, 5 mM MgCl2, 2.5% glycerol, 0.05% NP-40, 1 ug poly(dI-dC), 37 C, 20 min, DNA 1-5 nM.
Data set [3] shares this test system. Description: AFM. The settings on record: EMSA and footprint: 10 mM Tris-HCl pH 7.5, 50 mM KCl, 1 mM DTT, 5 mM MgCl2, 2.5% glycerol, 0.05% NP-40, 1 ug poly(dI-dC), 37 C, 20 min, DNA 1-5 nM.
The target of data set [4] is SegB (Saccharolobus solfataricus) (S. solfataricus). As to the kind of experiment: MST; SegB labelled with NT-647 at 304 nM final; unlabelled SegA serially diluted 1:1 over fifteen tubes; 10 mM Tris-HCl pH 7.4, 100 mM NaCl, 0.05% Tween 20; 20% LED power, 40% MST power.
The target in the next data set is T2, SegB (SegBSa) (Sulfolobus acidocaldarius, UniProt Q4JC57 1-151).
T2 sequence: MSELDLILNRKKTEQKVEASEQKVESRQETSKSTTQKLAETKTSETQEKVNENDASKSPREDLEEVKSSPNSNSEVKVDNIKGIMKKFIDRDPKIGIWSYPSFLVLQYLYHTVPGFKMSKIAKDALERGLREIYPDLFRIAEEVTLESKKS
Description: EMSA; EMSA and footprint: 10 mM Tris-HCl pH 7.5, 50 mM KCl, 1 mM DTT, 5 mM MgCl2, 2.5% glycerol, 0.05% NP-40, 1 ug poly(dI-dC), 37 C, 20 min; DNA 1-5 nM, SegB 0-1000. The settings on record: protein: recombinant; (pET22b NdeI/XhoI); chain copies: 2; label: 5' biotin on strand 1; blunt.

Consider “CTCAGCTGTCGGTAATACGATTTAGAAAGGATGAAATCGCTTATTCAATTTACTCTAATAAGCGACTAGAGTCTATAAGAAACACTCTAGAGTATTCTACCATAGAGGGAGAAGGCTTATTCAATGGATGCATTCTATGCGGTAAATGTGTTAGTGTTTGCCCTTACGGTAAACAAACTAATGACGTATTCCATACTCCT (double strand) [peak B-3 fragment]”, for which the binding entry in data set [1] and in data set [2] was “binds” throughout.
Turning to “AGTAAGATAAATTTACTGAAGTCGTTGTTTTGCCTACTCCTCCTTTCTGATTTATTACTGTGACTATCATGTCTAGACTCTTCTATCTATAACGTTTAATAAGGAATTCTACATGATAATACTGACGAGTCCACCATATTATAATGATAATATTTATATGCTAGATTTTTAAAAAGTATAAGTATGTTTGAGAAGCTCTATAGTGCAATAATTTATTCTGATGAATTTAAAAAAATACTATTGGGAAGAGGTGTAGATGACTTAGAGATAGCTTCAGCCTACATAGCGT (double strand) [289 bp segAB upstream fragment (sites 1, 2, 3)]”, the binding entry in data set [3] was “binds”.
Take “GCATCTATGGCATCTGAATTGGGTATATAACCATATTCTACTTCTATTCCCATATCTTCATCACTAACGTAGAGATCAAGTAGTTTTCCTTTCTTCTCATACTCCACGAATACTCTATAGCCTAGACTCTTGAAGTAAGCAGATAATATTAATTGTAGACTGGAGTGGTTAATATTTGTGAATCCTAATTCATAAAAATC (double strand) [peak B-5 fragment]”: the binding entry in data set [1] and in data set [2] was “binds” throughout.
For “GCTCGTAATTGAGGCCAAAATTCACAAAAATGATTACCTACAGACTCTAGAGTACTCTAAATATTTCAAGTACGGTATGGCAGTATTTCCATTTACTGGAGAGTGTAGAGTACCTAAAGGTTGGATTTGTATATTTAACACCACAAAGGATCAGTCTAGATTCTACTCTCTTCTTGAAGATTTATTATCTAGAGTTAAGT (double strand) [peak B-6 fragment]”, the binding entry in data set [1] and in data set [2] was “binds” throughout.
“SegA (Saccharolobus solfataricus) (natural protein)” had a Kd in data set [4] of 46 nM.
Take “GAATGTCACAAGGTTCTTTTCCTATATACTTAAAACAAGAGAAAAGTAGAGAAATATTCTATTATACTCTCTTTTTCCTAAATTTTAATCTTAAACTTAAGGGAAGTAGAGTCTAGACTCACGTTAGGGTATGAAATTATCTCATCCTAATTTTTATTTGGCATAACGCTAATATGAAAAACATAAATAGTTAGAGTGTT (double strand) [peak D fragment]”: the binding result in data set [1] and in data set [2] was “binds” in each case.

B1: saci0204(-47) 50 bp oligonucleotide (dsDNA)
DNA 1: TTATGAGAAGAATCTGAAATAAAGGGTATAGAGTTAAGAGTCTATATATG
DNA 2: CATATATAGACTCTTAACTCTATACCCTTTATTTCAGATTCTTCTCATAA
B1: the binding result with SegB (SegBSa) was “binds”.
